Target: HLA-A*02:01 (Homo sapiens, UniProt P04439, D140Y/D185E/D98H/E176V/E277Q/G131W/G231S/I119V/I121R/I166T/I218V/L300P/L318F/N151K/N90K/P208A/P217A/Q86G/Q94H/R138H/R169H/T345S)
Test: MHC binding assay: UV-ligand exchange with beta2m ELISA (peptide exchange yield)
Conditions: binding to HLA-A*02:01
From the text: Candidate peptides for T cell based therapies according to the present invention were further tested for their MHC binding capacity (affinity). The individual peptide-MHC complexes were produced by UV-ligand exchange, where a UV-sensitive peptide is cleaved upon UV-irradiation, and exchanged with the peptide of interest as analyzed. Only peptide candidates that can effectively bind and stabilize the peptide-receptive MHC molecules prevent dissociation of the MHC complexes. To determine the yield of the exchange reaction, an ELISA was performed based on the detection of the light chain ([…]) of stabilized MHC complexes. The assay was performed as generally described in Rodenko et al. (Rodenko et al., 2006).
96 well MAXISorp plates (NUNC) were coated over night with 2 ug/ml streptavidin in PBS at room temperature, washed 4× and blocked for 1 h at 37° C. in 2% BSA containing blocking buffer. […] Peptide-MHC monomers of the UV-exchange reaction were diluted 100 fold in blocking buffer. Samples were incubated for 1h at 37° C., washed four times, incubated with 2 ug/ml HRP conjugated anti-β2m for 1h at 37° C., washed again and detected with TMB solution that is stopped with […]. Absorption was measured at 450 nm. Candidate peptides that show a high exchange yield (preferably higher than 50%, most preferred higher than 75%) are generally preferred for a generation and production of antibodies or fragments thereof, and/or T cell receptors or fragments thereof, as they show sufficient avidity to the MHC molecules and prevent dissociation of the MHC complexes.

Row | Peptide exchange (MHC class I binding score, peptide exchange yield) | Substance
1 | “++++” (≥75% = ++++) | 119 (FLYIGDIVSL; listed as Homo sapiens) [compound 119]
2 | “+++” (≥50 = +++) | 120 (ALLGIPLTLV; listed as Homo sapiens) [compound 120]
3 | “++” (≥20% = ++) | 121 (GVVDPRAISVL; listed as Homo sapiens) [compound 121]
4 | “+++” (≥50 = +++) | 122 (FLLAEDDIYL; listed as Homo sapiens) [compound 122]
5 | “+++” (≥50 = +++) | 123 (NLWDLTDASVV; listed as Homo sapiens) [compound 123]
6 | “++” (≥20% = ++) | 124 (ALYETELADA; listed as Homo sapiens) [compound 124]
7 | “+++” (≥50 = +++) | 125 (VQIHQVAQV; listed as Homo sapiens) [compound 125]
8 | “++++” (≥75% = ++++) | 126 (VLAYFLPEA; listed as Homo sapiens) [compound 126]
9 | “++” (≥20% = ++) | 127 (KIGDEPPKV; listed as Homo sapiens) [compound 127]
10 | “++” (≥20% = ++) | 128 (YLFDDPLSAV; listed as Homo sapiens) [compound 128]
11 | “+++” (≥50 = +++) | 129 (GLLDGGVDILL; listed as Homo sapiens) [compound 129]
12 | “+++” (≥50 = +++) | 130 (FLWNGEDSALL; listed as Homo sapiens) [compound 130]
13 | “++” (≥20% = ++) | 131 (FVPPVTVFPSL; listed as Homo sapiens) [compound 131]
14 | “+++” (≥50 = +++) | 132 (LLVEQPPLAGV; listed as Homo sapiens) [compound 132]
15 | “++” (≥20% = ++) | 133 (KVLSNIHTV; listed as Homo sapiens) [compound 133]
16 | “+++” (≥50 = +++) | 134 (YLQELIFSV; listed as Homo sapiens) [compound 134]
17 | “+++” (≥50 = +++) | 135 (ALSEVDFQL; listed as Homo sapiens) [compound 135]
18 | “+++” (≥50 = +++) | 136 (YLADPSNLFVV; listed as Homo sapiens) [compound 136]
19 | “++++” (≥75% = ++++) | 137 (TLVLTLPTV; listed as Homo sapiens) [compound 137]
20 | “+++” (≥50 = +++) | 138 (YQYPRAILSV; listed as Homo sapiens) [compound 138]
21 | “+++” (≥50 = +++) | 139 (SVMEVNSGIYRV; listed as Homo sapiens) [compound 139]

Row | Peptide exchange (MHC class I binding score, peptide exchange yield) | Substance
22 | “++” (≥20% = ++) | 140 (YMDAPKAAL; listed as Homo sapiens) [compound 140]
23 | “++” (≥20% = ++) | 141 (YLDFSNNRL; listed as Homo sapiens) [compound 141]
24 | “+++” (≥50 = +++) | 142 (FLFATPVFI; listed as Homo sapiens) [compound 142]
25 | “++++” (≥75% = ++++) | 143 (LLLDITPEI; listed as Homo sapiens) [compound 143]
26 | “+++” (≥50 = +++) | 144 (YIMEPSIFNTL; listed as Homo sapiens) [compound 144]
27 | “++” (≥20% = ++) | 145 (FLATSGTLAGI; listed as Homo sapiens) [compound 145]
28 | “++” (≥20% = ++) | 146 (SLATAGDGLIEL; listed as Homo sapiens) [compound 146]
29 | “+++” (≥50 = +++) | 147 (SLLEAVSFL; listed as Homo sapiens) [compound 147]
30 | “++” (≥20% = ++) | 148 (ALNPEIVSV; listed as Homo sapiens) [compound 148]
31 | “+++” (≥50 = +++) | 149 (NLLELFVQL; listed as Homo sapiens) [compound 149]
32 | “+++” (≥50 = +++) | 150 (RLWEEGEELEL; listed as Homo sapiens) [compound 150]
33 | “+++” (≥50 = +++) | 151 (KILQQLVTL; listed as Homo sapiens) [compound 151]
34 | “+++” (≥50 = +++) | 152 (ILFEDIFDV; listed as Homo sapiens) [compound 152]
35 | “+” (≥10% = +) | 153 (FLIANVLYL; listed as Homo sapiens) [compound 153]
36 | “++” (≥20% = ++) | 154 (ALDDGTPAL; listed as Homo sapiens) [compound 154]
37 | “+++” (≥50 = +++) | 155 (RVANLHFPSV; listed as Homo sapiens) [compound 155]
38 | “++” (≥20% = ++) | 157 (SLNDEVPEV; listed as Homo sapiens) [compound 157]
39 | “+++” (≥50 = +++) | 158 (KLFDVDEDGYI; listed as Homo sapiens) [compound 158]
40 | “++++” (≥75% = ++++) | 159 (GLVGNPLPSV; listed as Homo sapiens) [compound 159]
41 | “+++” (≥50 = +++) | 160 (FLFDEEIEQI; listed as Homo sapiens) [compound 160]
42 | “+++” (≥50 = +++) | 161 (ALLEGVNTV; listed as Homo sapiens) [compound 161]

Row | Peptide exchange (MHC class I binding score, peptide exchange yield) | Substance
43 | “+++” (≥50 = +++) | 162 (YQQAQVPSV; listed as Homo sapiens) [compound 162]
44 | “+++” (≥50 = +++) | 163 (ALDEMGDLLQL; listed as Homo sapiens) [compound 163]
45 | “+++” (≥50 = +++) | 164 (ALLPQPKNLTV; listed as Homo sapiens) [compound 164]
46 | “+++” (≥50 = +++) | 165 (SLLDEIRAV; listed as Homo sapiens) [compound 165]
47 | “+++” (≥50 = +++) | 166 (YLNHLEPPV; listed as Homo sapiens) [compound 166]
48 | “+++” (≥50 = +++) | 167 (KVLEVTEEFGV; listed as Homo sapiens) [compound 167]
49 | “++++” (≥75% = ++++) | 168 (KILDADIQL; listed as Homo sapiens) [compound 168]
50 | “+++” (≥50 = +++) | 169 (NLPEYLPFV; listed as Homo sapiens) [compound 169]
51 | “+++” (≥50 = +++) | 170 (RLQETLSAA; listed as Homo sapiens) [compound 170]
52 | “+++” (≥50 = +++) | 171 (LLLPLQILL; listed as Homo sapiens) [compound 171]
53 | “++” (≥20% = ++) | 172 (VLYSYTIITV; listed as Homo sapiens) [compound 172]
54 | “+++” (≥50 = +++) | 173 (LLDSASAGLYL; listed as Homo sapiens) [compound 173]
55 | “+++” (≥50 = +++) | 174 (ALAQYLITA; listed as Homo sapiens) [compound 174]
56 | “+++” (≥50 = +++) | 175 (YLFENISQL; listed as Homo sapiens) [compound 175]
57 | “++” (≥20% = ++) | 176 (YLMEGSYNKVFL; listed as Homo sapiens) [compound 176]
58 | “++++” (≥75% = ++++) | 177 (YLLPEEYTSTL; listed as Homo sapiens) [compound 177]
59 | “++++” (≥75% = ++++) | 178 (ALTEIAFVV; listed as Homo sapiens) [compound 178]
60 | “+++” (≥50 = +++) | 179 (KVLNELYTV; listed as Homo sapiens) [compound 179]
61 | “++” (≥20% = ++) | 180 (FQIDPHSGLVTV; listed as Homo sapiens) [compound 180]

From patent publication US10464978B2, “Peptides and combination of peptides for use in immunotherapy against ovarian cancer and other cancers” (immatics biotechnologies GmbH, priority 2015, dated 2019)
